The results in this text go back to PMC7515910, “Functional genetic encoding of sulfotyrosine in mammalian cells” (Nature Communications, 2020).

The data set deals with the molecule itself. In words: crystal structure; sTyrRS (a.a. 1-322, 9 mg/mL) with 2 mM sulfotyrosine; sitting drop vapor diffusion at 15 °C; ammonium sulfate (2.2 M), PEG 400 (2.5-3%), HEPES (0.1 M, pH 7.5); 1.78 Å.

B1: evolved sTyrRS amino acid activation domain (a.a. 1-322) (enzyme, E. coli, UniProt P0AGJ9 1-322, looked up)
chain: MASSNLIKQLQERGLVAQVTDEEALAERLAQGPIALYCGFDPTADSLHLGHLVPLLCLKRFQQAGHKPVAVVGGATGLIGDPSFKAAERKLNTEETVQEWVDKIRKQVAPFLDFDCGENSAIAANNYDFFGNMNVLTFLRDIGKHFSVNQMINKEAVKQRLNREDQGISFTEFSYNLLQGYGFACLNKQYGVVLQIGGSDQWGNITSGIDLTRRLHQNQVFGLTVPLITKADGTKFGKTEGGAVWLDPKKTSPYKFYQFWINTADADVYRFLKFFTFMSIEEINALEEEDKNSGKAPRAQYVLAEQVTRLVHGEEGLQAAKR
notes: Y37 unchanged; Crystallised in complex with the small molecule sulfotyrosine (2 mM); also called sTyrRS (1-322); sTyrRS1-322; source: E. coli BL21(DE3), purified (Ni resin, Ulp1 cleavage, Superdex 200 gel filtration); not shown: 6xHis, N-terminal, cleaved; SUMO, N-terminal, cleaved
Broadly, the stoichiometry N is the number of molecules, sites or subunits per partner or assembly. As to B1, the “stoichiometry N” value is 2.
